Test results as given in patent EP4702986A1, “POLYPEPTIDE AND USE THEREOF” (Biocells (Beijing) Biotech Co., Ltd., priority 2023, dated 2024).
Where “and” joins values, the source holds several entries; their conditions need not be identical. Identical values can stand only once. Like-named read-outs stand apart in the source and are kept apart here. Numbered stars: 1 amine (or outer) side, 2 acyl side, 3 side chain; on linkers, the order of the positions; unused ones are H or OH. Square brackets hold non-standard residues; d marks the D form. Side chains are listed from the residue outwards. Ends that are not written are not given here. * marks the point of attachment. C18 diacid = O=C(O)CCCCCCCCCCCCCCCCC(=O)*; γGlu = O=C(O)[C@H](CCC(=O)[*:2])N[*:1]; Hexadienoyl(2E,4E) = C/C=C/C=C/C(=O)*; NMeI = CC[C@H](C)[C@H](NC)C(=O)O; NMeL = CN[C@@H](CC(C)C)C(=O)O; Fumaroyl = O=C(O)/C=C/C(=O)*; Suc = O=C(CCC(=O)[*:2])[*:1]; AEEA = NCCOCCOCC(=O)O

Biological target: T1, human ETB receptor (Homo sapiens, UniProt P24530)
T1 construct: expressed in transfected cells; host or cells: 293T-17 cells, transient transfection
T1 sequence (P24530 27-442): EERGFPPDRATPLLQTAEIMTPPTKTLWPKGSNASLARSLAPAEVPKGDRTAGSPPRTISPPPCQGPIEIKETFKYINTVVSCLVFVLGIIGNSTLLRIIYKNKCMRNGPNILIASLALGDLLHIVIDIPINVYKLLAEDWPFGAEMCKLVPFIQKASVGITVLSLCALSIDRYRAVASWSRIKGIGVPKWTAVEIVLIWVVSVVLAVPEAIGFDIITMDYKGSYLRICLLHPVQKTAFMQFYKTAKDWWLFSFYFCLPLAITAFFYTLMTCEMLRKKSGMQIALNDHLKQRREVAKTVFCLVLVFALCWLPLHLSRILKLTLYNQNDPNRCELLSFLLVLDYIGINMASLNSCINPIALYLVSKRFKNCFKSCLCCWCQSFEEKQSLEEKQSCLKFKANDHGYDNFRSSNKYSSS
Assay: Screening of polypeptides for activity on human ETB receptor (IP-One Gq kit, % of positive control IRL1620)
Type: cell-based
Protocol: 293T-17 cells were seeded at a density of 650,000 cells per well in a 6-well plate and cultured overnight in an incubator at 37°C and 5% CO2. Afterward, the cells were transfected with an expression vector, PCDNA3.1-hETB which contained a human ETB receptor gene, at a plasmid concentration of 2.5 µg per well. The cells were further cultured for 48 hours, and green fluorescence expression was observed under a fluorescence microscope. The cells were then digested with trypsin and counted. The activity of compounds on the human ETB receptor was determined with the IP-One Gq kit from Cisbio Bioassays. The cells were suspended in Stim Buffer provided in the kit and the cell suspension was added to a 96-well detection plate at 7 µL cell suspension (containing 30,000 cells) per well. The polypeptides to be screened for activity (prepared according to the Preparation Example of the invention) and polypeptide IRL1620 as positive control were dissolved in Stim B to be at a concentration of 2×, and 7 µL was added to the test cells, while 7 µL of PBS solution was added to the cells in the negative control wells. IRL1620 was used as the positive control polypeptide. The plate was sealed and incubated at 37°C for 1 hour in a cell culture incubator. Test wells, positive control wells, and PBS control wells were each added with 3 µL of IP1 d2 working solution and 3 µL of IP1 Tb cryptotate Antibody working solution. The plate was then sealed and incubated in the dark at room temperature (25°C±5°C) for 1 hour. The plate seal was removed, and the […] at 665 nm and 620 nm was measured with an ID5 microplate reader. The ratio of the acceptor emission signal to the donor emission signal, i.e., the value of (signal at 665 nm/signal at 620 nm)×10^4, was calculated for each well. With F1 representing the average value of values of signal at 665 nm/signal at 620 nm determined for the test sample at a specific concentration, F2 representing the average value of values of signal at 665 nm/signal at 620 nm determined for the positive control IRL1620 at the same concentration, and T1 representing the average value of values of signal at 665 nm/signal at 620 nm determined for the PBS negative control, the percentage of activity of the test polypeptide sample relative to the positive control sample IRL1620 is equal to (F1-T1)×100/(F2-T1). hETB sequence (NCBI accession number NM_000115.5).

Row | Substance | hETBR agonist activity, percentage of activity relative to IRL1620 | hETBR agonist activity, percentage of activity relative to IRL1620 (@10nM) | hETBR agonist activity, percentage of activity relative to IRL1620 (@1µM) [%@1µM] | hETBR agonist activity, percentage of activity relative to IRL1620 (@10µM) [%@10µM]
1 | Fum-D cyclo(EEAK)YFAHK(-γE-AEEA-AEEA-ODDA)D(2-Abu)IW [BX-104] | -21.93%@100nM | -1299.77%@10nM |  | 
2 | Fum-D cyclo(EEAK)YFAHK(-γE-AEEA-AEEA-ODDA)DIIW [BX-103] | 14.93%@100nM | 45.51%@10nM |  | 
3 | Fum-D cyclo(EEAK)YFAHLDIIW (Fumaroyl-DEEAKYFAHLDIIW; lactam (positions not given here)) [BX-102] | 155.47% | 113.81% |  | 
4 | Fum-DEE(C16)AVYFAHLDIIW ({Fumaroyl-Asp-Glu-E(C16)}-AVYFAHLDIIW; not fully specified; printed as Fum-DEE(C16)AVYFAHLDIIW) [BX14-1] |  |  | 15.80 | 18.63
5 | Fum-DEEAK(-γE-AEEA-AEEA-ODDA)YFAHLDIIW [BX-67] (Fum-DEEAK with lipidated linker N-terminal) | 46.98%@100nM | 2.68%@10nM |  | 
6 | Fum-DEEAK(-γE-AEEA-AEEA-ODDA)YFAHLDIIW [BX-109] (Fum-DEEAK with lipidated linker N-terminal) | 74.1%@100nM | -1095.4%@10nM |  | 
7 | Fum-DEEAK(-γE-AEEA-AEEA-ODDA)YFAHLDVIW (Fum-DEEAK with lipidated linker N-terminal) [BX-110] | 132.61%@100nM | 138.99%@10nM |  | 
8 | Fum-DEEAKYFAHK(-γE-AEEA-AEEA-ODDA)DIIW (Fumaroyl-DEEAKYFAHK([γGlu-AEEA-AEEA-C18 diacid])DIIW) [BX-107] | 100.37%@100nM | 50.48%@10nM |  | 
9 | Fum-DEEAKYFAHK(-γE-AEEA-AEEA-ODDA)DVIW (Fumaroyl-DEEAKYFAHK([γGlu-AEEA-AEEA-C18 diacid])DVIW) [BX-108] | 9.56%@100nM | -1185.11%@10nM |  | 
10 | Fum-DEEAKYFAHLDIIW (Fumaroyl-DEEAKYFAHLDIIW) [BX-105] | 253.05%@100nM | 64.66%@10nM |  | 
11 | Fum-DEEAKYFAHLDVIW (Fumaroyl-DEEAKYFAHLDVIW) [BX-106] | 117.63%@100nM | 117.57%@10nM |  | 
12 | Fum-DEEAVYFAHK(-γE-AEEA-AEEA-ODDA)DVIW (Fumaroyl-DEEAVYFAHK([γGlu-AEEA-AEEA-C18 diacid])DVIW) [BX-101] | 30.96% |  |  | 
13 | Fum-DEEAVYFAHKDVIW (Fumaroyl-DEEAVYFAHKDVIW) [BX-23] | 89.28%@100nM | 26.12%@10nM |  | 
14 | Fum-DEEAVYFAHL(N-Me)DI(N-Me)IW (Fumaroyl-DEEAVYFAH[NMeL]; not fully specified (C-terminus)) [BX-29] | 6.51%@100nM | 15.61%@10nM |  | 
15 | Fum-DEEAVYFAHL(N-Me)DIIW (Fumaroyl-DEEAVYFAH[NMeL]; not fully specified (C-terminus)) [BX-28] | -10.73%@100nM | 8.27%@10nM |  | 
16 | Fum-DEEAVYFAHLDVIW (Fumaroyl-DEEAVYFAHLDVIW) [FBX-7] | 99.81%@100nM | 91.89%@10nM |  | 
17 | Fum-DEEAVYFAHOrn(-AEEA-AEEA-γE-ODDA)DIIW [BX-51] | 37.60%@100nM | 47.83%@10nM |  | 
18 | Fum-DEEAVYFK(-γE-AEEA-AEEA-ODDA)HLDIIW (Fumaroyl-DEEAVYFK([γGlu-AEEA-AEEA-C18 diacid])-{H2N-Leu-Asp-Ile-Ile-Trp}) [BX-68] | -18.64%@100nM | -39.42%@10nM |  | 
19 | Fum-DEEE(Biotin)VYFAHKDIIW [BX-16] | 22.24%@1µM and 14.10%@10µM |  |  | 
20 | Fum-DEEEVYFAHK(-AEEA-AEEA-γE - ODDA)DIIW (Fumaroyl-DEEEVYFAHK([AEEA-AEEA-γGlu-C18 diacid])DIIW) [BX-60] | 4.84%@100nM | -15.72%@10nM |  | 
21 | MeO-Fum-D cyclo(EEAK)YFAHLD(2-Abu)IW [BX-65] | 99.24%@100nM | 59.02%@10nM |  | 
22 | MeO-Fum-DEEAVYFAHK(-γE-AEEA-AEEA-ODDA)DIIW ({MeO‑Fum}-DEEAVYFAHK([γGlu-AEEA-AEEA-C18 diacid])DIIW) [BX-75] | -10.59%@100nM | 14.68%@10nM |  | 
23 | SA-DEEAVYFAHLDIIW ({Hexadienoyl(2E,4E)}-DEEAVYFAHLDIIW) [BX-111] | 64.98%@100nM | -11.84%@10nM |  | 
24 | Suc-DEEAVYFAHL(N-Me)DI(N-Me)IW (Suc-DEEAVYFAH[NMeL]; not fully specified (C-terminus)) [BX-27] | 0.42%@100nM | 1.72%@10nM |  | 
25 | Suc-DEEAVYFAHL(N-Me)DIIW (Suc-DEEAVYFAH[NMeL]; not fully specified (C-terminus)) [BX-26] | 30.58%@100nM | 11.94%@10nM |  | 
26 | Suc-DEEAVYFAHLDI(N-Me)IW (Suc-DEEAVYFAHLDI[NMeI]W) [BX-25] | 28.86%@100nM | 19.19%@10nM |  | 
27 | Suc-DEEAVYFAHOrn(-AEEA-AEEA-γE - ODDA)DIIW [BX-61] | 40.94%@100nM | 13.97%@10nM |  | 
